Results as given in patent US20150218285A1 (TORAY INDUSTRIES, published 2015).
Values belong to the binder of their own block, whether it stands above or below them.

How the values were obtained:
[1] = molecular target: T1, CAPRIN-1 protein on the cell surface of human cancer cells (human, UniProt Q14444 2-709); experiment: cell-based or functional assay
T1 sequence (looked up): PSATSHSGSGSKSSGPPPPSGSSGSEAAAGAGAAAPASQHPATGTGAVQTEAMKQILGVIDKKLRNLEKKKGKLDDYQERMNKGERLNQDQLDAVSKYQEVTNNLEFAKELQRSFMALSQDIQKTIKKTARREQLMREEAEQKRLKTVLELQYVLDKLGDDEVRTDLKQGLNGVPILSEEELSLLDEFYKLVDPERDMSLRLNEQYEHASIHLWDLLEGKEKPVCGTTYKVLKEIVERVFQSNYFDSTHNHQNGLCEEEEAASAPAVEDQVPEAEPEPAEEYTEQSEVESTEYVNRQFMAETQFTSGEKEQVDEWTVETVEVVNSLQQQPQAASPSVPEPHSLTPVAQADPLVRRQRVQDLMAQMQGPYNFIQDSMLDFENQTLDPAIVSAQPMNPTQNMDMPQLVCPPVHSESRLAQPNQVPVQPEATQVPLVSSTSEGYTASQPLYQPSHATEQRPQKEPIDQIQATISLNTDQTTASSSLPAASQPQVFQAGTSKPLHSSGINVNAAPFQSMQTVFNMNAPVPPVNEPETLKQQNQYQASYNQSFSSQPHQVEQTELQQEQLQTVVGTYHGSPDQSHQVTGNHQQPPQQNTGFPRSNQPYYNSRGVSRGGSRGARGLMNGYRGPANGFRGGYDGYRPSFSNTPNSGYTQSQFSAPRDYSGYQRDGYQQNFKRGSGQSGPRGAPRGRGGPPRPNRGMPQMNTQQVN

[2] = molecular target: T2, polypeptide comprising the amino acid sequence set forth in SEQ ID NO: 269 (human); experiment: ELISA on immobilised synthetic CAPRIN-1 peptides, culture supernatant
T2 peptide: PPVNEPETLKQQNQYQAS

[3] = molecular target: T1, CAPRIN-1 protein on the cell surface of …; experiment: flow cytometry on Hep3B, HepG2, SK-Hep-1, SW480; culture supernatant; vs isotype control
Method: Subsequently, four liver cancer cell lines (Hep3 GB, HepG2, SK-Hep-1, and SW480), which were confirmed to express a CAPRIN-1 gene, were investigated for whether or not a CAPRIN-1 protein is expressed on the surfaces of these cells. 1×10⁶ cells of each cell line were centrifuged with a 1.5-mL micro centrifugation tube. To the cells was added the culture supernatant (100 μL) containing any of mouse monoclonal antibodies #1 to #22 against a CAPRIN-1 protein reacting to cancer cell surface produced in Example 4 and mouse-chicken chimeric antibodies #1 to #3 against a CAPRIN-1 protein produced in the above (2), followed by being left to stand on ice for 1 hour. After washing with PBS, the cells were suspended in a FITC-labeled goat anti-mouse IgG antibody (manufactured by Invitrogen Corporation) diluted by 500-fold with PBS containing 0.1% FBS, followed by being left to stand on ice for 1 hour. After washing with PBS, the fluorescence intensity was measured with FACS Calibur available from Becton, Dickinson and Company. Separately, as a control, the same procedure as in above was performed using an iso-type control antibody, instead of the culture supernatants containing the mouse monoclonal antibodies #1 to #22 against a CAPRIN-1 protein and the mouse-chicken chimeric antibodies #1 to #3. As a result, the fluorescence intensity in the cells to which any of the monoclonal antibodies #1 to #22 and the mouse-chicken chimeric antibodies #1 to #3 was added was 20% or more higher than that in the control in every case. Specifically, in the case of using mouse-chicken chimeric antibody #1, the fluorescence intensity was enhanced by 200% or more in both SK-Hep-1 and Hep3B. […] The rate of increase in the fluorescence intensity is represented by the rate of increase in the mean fluorescence intensity (MFI value) in each cell and is calculated by the following calculation formula: […]

[4] = molecular target: T3, polypeptide set forth in SEQ ID NO: 266 (human); experiment: ELISA on immobilised synthetic CAPRIN-1 peptides, culture supernatant
T3 construct: identified by ELISA on synthetic 12-16 aa peptides of human CAPRIN-1
T3 peptide: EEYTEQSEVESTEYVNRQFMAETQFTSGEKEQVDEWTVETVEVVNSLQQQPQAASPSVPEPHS

[5] = molecular target: T4, peptide set forth in SEQ ID NO: 268 (human); experiment: as above
T4 peptide: FTSGEKEQVDEW

[6] = molecular target: T5, polypeptide set forth in SEQ ID NO: 430 (human); experiment: ELISA on 93 synthetic CAPRIN-1 peptides, purified antibody 0.1 ug/mL
T5 peptide: ATQVPLVSSTSEGYTA
Method: Candidate peptides (93 peptides) each consisting of 12 to 16 amino acids of the amino acid sequence of the human CAPRIN-1 protein were synthesized and were each dissolved at a concentration of 1 mg/mL in DMSO. Each peptide was dissolved at a concentration of 30 μg/mL in a 0.1 M sodium carbonate buffer (pH 9.6). The solution was added to a 96-well plate (manufactured by Nunc, Product No. 436006) at 100 μL per well, followed by being left to stand at 4° C. overnight. The solution was removed, and 200 μL of 10 mM ethanolamine/0.1 M sodium carbonate buffer (pH 9.6) was added to each well, followed by being left to stand at room temperature for 1 hour. The solution was removed, and each well was washed with PBS containing 0.5% Tween 20 (PBST) twice to prepare a peptide-immobilized plate. For confirmation, this plate was also provided with a well to which the CAPRIN-1 protein was immobilized in accordance with the method described above. Rabbit anti-CAPRIN-1 monoclonal antibody #1 purified to a concentration of 0.1 ug/mL by a usual method was added to the plate at an amount of 50 μL per well, followed by shaking at room temperature for 1 hour. The solution was removed, and each well was washed with PBST three times. […] The absorbance was measured at 450 nm and 595 nm with an absorption spectrometer. […]

[7] = molecular target: T5, polypeptide set forth in SEQ ID NO: 430; experiment: ELISA as in Example 13(1), purified antibody
[8] = molecular target: T6, polypeptide set forth in SEQ ID NO: 431 (human); experiment: ELISA on immobilised synthetic CAPRIN-1 peptides, culture supernatant
T6 peptide: VERVFQSNYFDSTHNH

[9] = molecular target: T1, CAPRIN-1 protein on the cell surface of …; experiment: flow cytometry on Hep3B, HepG2, SK-Hep-1, SW480; antibody 20 ug/mL; control: secondary antibody only
Method: Four human liver cancer cell lines (Hep3 GB, HepG2, SK-Hep-1, and SW480) were investigated whether or not a CAPRIN-1 protein is expressed on the cell surface using mouse anti-CAPRIN-1 monoclonal antibodies #30 to #36. 5×10⁵ cells of each of the liver cancer cell lines were centrifuged with a 1.5-mL micro centrifugation tube. The cells were subjected to reaction with each of mouse anti-CAPRIN-1 antibodies #30 to #36 at a final concentration of 20 μg/mL, followed by being left to stand on ice for 1 hour. After washing with PBS, the cells were reacted with a 100-fold diluted Alexa488-labeled goat anti-mouse IgG antibody (manufactured by Invitrogen Corporation), followed by being left to stand on ice for […]. After washing with PBS, the fluorescence intensity was measured with FACS Calibur available from Becton, Dickinson and Company. Separately, the cells were subjected to reaction with only the secondary antibody as a negative control.

B2: mouse monoclonal antibody #5 (antibody, V domains shown)
VH: DAELVKPGASVKISCKASGYTFTDHSIHWVQQKPEQGLEWIGYISPGNGNIKYNEKFKGKATLTADKSSSTAYMQLNSLTSEDSAVYFCKRSLGRGGPYYFDYWGQGTTVTVSS
VL: DIVLTQAAPSLPVTPGESVSISCRSSKSLLHSNGNTYLYWFLQRPGQSPQLLIYRMSNLASGVPDRFSGSGSGTAFTLRISRVEAEDVGVYYCMQHREYPVTFGSGPN
notes: mouse hybridoma antibody
rate of increase in mean fluorescence intensity [3]: ≥ 20% | cytotoxicity (ADCC, 51Cr release) on SK-Hep-1 [1]: ≥ 12% | binding result [4]: binds | binding result [5]: binds

B3: rabbit anti-CAPRIN-1 monoclonal antibody #1 (antibody, V domains shown)
VH: QSLEESGGDLVKPGASLTLTCTASGFSFSGSYYMSWVRQAPGKGLEWIAYIYIGDGVTAYANWAKGRFTISKASSTTVTLQMTSLTAADTATYFCARGNKLWGPGTLVTVSS
VL: DVVMTQTPASVEAAVGGTVTIKCQASQSISSYLAWYQQKPGQPPKRLIYDASNLDSGVPSRFKGSGSGTDFTITISDLECADAATYYCQCTAVSSATIYGNAFGGGTEVVVK
notes: rabbit hybridoma antibody
binding result [6]: binds

B5: mouse anti-CAPRIN-1 antibody #34 (antibody, V domains shown)
VH: GAELVRPGTSVKVSCKASVYAFTNYLIEWVKQRPGQGLEWIGVINPKSGGTKYNEKFRGKATLTADKSSSTAYMQLSSLTSGDSAVYFCAITGTDYWGQGTTLTVSS
VL: QGTRCDIQMTQTTSSLSASLGDRVTISCSASQGINNYLNWYQQKPDGTVKLLIYYTSSLRSGVPSRFSGSGSGTDYSLTISNLEPEDVATYYCQQYSKLPRTFGGGTKLEIKR
notes: mouse hybridoma antibody; also called mouse anti-CAPRIN-1 monoclonal antibody #34; mouse anti-CAPRN-1 antibody #34
binding result [8]: binds | increase in fluorescence intensity over the control [9]: ≥ 35%

Continued, in another order:

binding result [2]: binds
B1: human-chicken chimeric antibody #3 (antibody, human IgG1, kappa, V domains shown)
VH: AVTLDESGGGLQTPGGALSLVCKASGFTFSGYDMLWVRQAPGKGLEWVAGIGSTGGGTDYGAAVKGRATISRDNGQSTVRLQLNNLRAEDTATYYCAKVAGGCNSGYCRDSPGSIDAWGHGTEVIVSA
VL: AVTQQPASVSANPGETVKITCSGGGSRNYYGWYQQKSPGSVPVTVIYYDDQRPSNIPSRFSGALSGSTSTLTITGVQADDEAVYFCGSADSNTYEGSFGAGTTLTVLT
notes: produced similarly to human-chicken chimeric antibody #1 from chicken monoclonal antibody #3; human IgG1 constant domains; also called human-chicken chimeric monoclonal antibody #3
cytotoxicity (ADCC, 51Cr release) on SK-Hep-1 [1]: ≥ 12%

binding result [7]: binds
B4: human-rabbit chimeric anti-CAPRIN-1 antibody #1 (antibody, V domains shown)
VH: B3 VH
VL: B3 VL
notes: also called human-rabbit chimeric anti-CAPRIN-1 monoclonal antibody #1
